± gives the uncertainty stated by the source.

To fix the notation:
B1: Nanos homolog 2, residues 63 to 115; numbered along this chain, P60321 (parent)
chain: CNFCKHNGESRHVYSSHQLKTPDGVVVCPILRHYVCPVCGATGDQAHTLKYCP
B2: Dynamin-binding protein, residues 146 to 206; numbered along this chain, Q6XZF7 (parent)
chain: SMGQARALMGLSAQLDEELDFREGDVITIIGVPEPGWFEGELEGRRGIFPEGFVELLGPLR

The variants in one data set derive from B1. Nature of the data set: abundance fitness (aPCA) (normalised: wild type 0, dead -1); higher = more abundant; growth selection in yeast, the domain comes from the species named. As to conditions: Homo sapiens.
For T48R, the abundance fitness is -0.247 ± 0.054.
For T48W, the abundance fitness was -0.284 ± 0.077.
Same read-out and setting: the value for T48E was 0.091 ± 0.093; that for T48Q was -0.031 ± 0.11; that for T48D was -0.347 ± 0.18.
As to T48C, the abundance fitness was -0.158 ± 0.097.
Same read-out and setting: then T48G, with -0.226 ± 0.056.
On the same count and under the same terms, the value for T48H was -0.363 ± 0.18; that for T48I was -0.417 ± 0.22.
Regarding T48A, the abundance fitness was -0.136 ± 0.077.
Same read-out and setting: then T48S, with -0.19 ± 0.077; and T48M, with -0.12 ± 0.11.
In the case of T48K, the abundance fitness was 0.052 ± 0.12.
Same read-out and setting: then T48V, with -0.045 ± 0.079; and T48F, with -0.326 ± 0.073.
For the variant T48L, the abundance fitness was -0.224 ± 0.088.
As to H47D, the abundance fitness was -0.463 ± 0.13.
Same read-out and setting: then H47R, with -0.443 ± 0.12; and H47A, with -0.431 ± 0.11; and H47T, with -0.695 ± 0.24.
Regarding H47P, the abundance fitness was -0.607 ± 0.19.
Still for that read-out and setting: then H47M, with -0.647 ± 0.12; and H47I, with -0.981 ± 0.17; and H47G, with -0.643 ± 0.067.
On to H47L, for which the abundance fitness was -0.735 ± 0.11.
Regarding H47W, the abundance fitness was -0.781 ± 0.083.
For the variant H47K, the abundance fitness was -0.616 ± 0.2.
Turning to H47V, the abundance fitness was -0.628 ± 0.064.
Same read-out and setting: then H47N, with -0.591 ± 0.1; and H47S, with -1.01 ± 0.29; and H47Q, with -0.739 ± 0.34.
For H47Y, the abundance fitness is -0.621 ± 0.23.
In the case of Q45M, the abundance fitness was determined as 0.119 ± 0.13.
With Q45N, the abundance fitness was 0.085 ± 0.2.
With Q45Y, the abundance fitness is -0.168 ± 0.1.
Regarding Q45P, the abundance fitness was -0.429 ± 0.15.
In the case of Q45V, the abundance fitness is -0.047 ± 0.067.
Same read-out and setting: then Q45W, with -0.368 ± 0.18; and Q45L, with -0.037 ± 0.094.
On the same count and under the same terms, then Q45S, with 0.039 ± 0.091; and Q45T, with -0.074 ± 0.11; and Y51W, with -0.237 ± 0.098.
Same read-out and setting: the value for Y51R was -0.258 ± 0.05.
As to Y51D, the abundance fitness was -0.381 ± 0.15.
For Y51E, the abundance fitness is -0.368 ± 0.15.
On the same count and under the same terms, then Y51N, with 0.075 ± 0.13; and Y51I, with -0.34 ± 0.17; and Y51Q, with -0.163 ± 0.11.
Still for that read-out and setting: then Y51F, with 0.097 ± 0.12.
Y51M: the abundance fitness is -0.203 ± 0.12.
On to Y51K, for which the abundance fitness worked out at 0.024 ± 0.12.
On the same count and under the same terms, the value for Y51T was -0.097 ± 0.12; that for Y51G was -0.193 ± 0.073.
Take Y51C: the abundance fitness is -0.21 ± 0.11.
Consider Y51S, for which the abundance fitness was -0.104 ± 0.085.
Turning to Y51V, the abundance fitness is -0.071 ± 0.067.
On the same count and under the same terms, then Y51P, with -0.287 ± 0.074; and Y51L, with -0.137 ± 0.077.
The same measure, in the same setting: the value for K50E was -0.185 ± 0.11.
Still for that read-out and setting: the value for K50G was -0.298 ± 0.063; that for K50D was -0.484 ± 0.22; that for K50N was -0.1 ± 0.17.
Take K50M: the abundance fitness was -0.063 ± 0.16.
Turning to K50I, the abundance fitness was -0.809 ± 0.3.
Take K50Y: the abundance fitness was -0.318 ± 0.3.
The same measure, in the same setting: then K50L, with -0.379 ± 0.099; and K50T, with -0.117 ± 0.064.
K50S: the abundance fitness was -0.179 ± 0.086.
For K50W, the abundance fitness is -0.226 ± 0.12.
For K50V, the abundance fitness was -0.22 ± 0.075.
K50A: the abundance fitness is -0.284 ± 0.09.
Same read-out and setting: the value for K50F was -0.418 ± 0.17; that for K50H was -0.249 ± 0.23.
Same read-out and setting: then K50C, with -0.42 ± 0.17; and K50P, with 0.145 ± 0.13; and K50Q, with -0.225 ± 0.11.
As for C52S, the abundance fitness was -0.432 ± 0.12.
Same read-out and setting: then C52Y, with -0.497 ± 0.13; and C52Q, with -0.574 ± 0.19; and C52E, with -0.64 ± 0.34.
On to C52A, for which the abundance fitness is -0.777 ± 0.2.
On the same count and under the same terms, the value for C52F was -0.789 ± 0.22; that for C52H was -0.181 ± 0.078; that for C52I was -0.731 ± 0.49.
As to C52M, the abundance fitness was -0.788 ± 0.26.
Same read-out and setting: then C52D, with -0.505 ± 0.18; and C52G, with -0.732 ± 0.09.
For C52W, the abundance fitness was -0.824 ± 0.12.
Still for that read-out and setting: the value for C52V was -0.721 ± 0.082; that for C52K was -0.488 ± 0.1.
Still for that read-out and setting: then C52P, with -0.249 ± 0.39; and C52R, with -0.506 ± 0.085.
A46V: the abundance fitness was -0.192 ± 0.1.
For the variant A46G, the abundance fitness was -0.133 ± 0.068.
A46S: the abundance fitness was -0.241 ± 0.13.
On the same count and under the same terms, the value for A46E was -0.202 ± 0.082; that for A46D was -0.426 ± 0.23.
Same read-out and setting: then A46R, with -0.322 ± 0.11.
On to A46I, for which the abundance fitness is -0.308 ± 0.17.
For A46P, the abundance fitness is -0.403 ± 0.13.
Same read-out and setting: then A46C, with -0.816 ± 0.25; and A46Q, with -0.587 ± 0.12; and A46Y, with -0.47 ± 0.12.
Take A46L: the abundance fitness is -0.649 ± 0.11.
Take A46M: the abundance fitness is -0.6 ± 0.15.
On the same count and under the same terms, the value for A46N was -0.694 ± 0.4; that for A46H was -0.124 ± 0.28; that for A46W was -0.77 ± 0.22.
Same read-out and setting: then A46K, with -0.349 ± 0.094; and L49H, with 0.169 ± 0.18; and L49T, with 0.016 ± 0.11.
The same measure, in the same setting: the value for L49A was 0.081 ± 0.087.
Take L49M: the abundance fitness turned out to be 0.148 ± 0.13.
Consider L49Y, for which the abundance fitness came out at 0.057 ± 0.15.
As for L49Q, the abundance fitness was 0.347 ± 0.16.
On to L49N, for which the abundance fitness is -0.013 ± 0.14.
The same measure, in the same setting: then L49I, with 0.251 ± 0.16; and L49V, with 0.104 ± 0.067; and L49S, with -0.071 ± 0.097.
For the variant L49W, the abundance fitness was -0.021 ± 0.13.
On to L49E, for which the abundance fitness was -0.095 ± 0.11.
On the same count and under the same terms, the value for L49F was -0.076 ± 0.083.
Same read-out and setting: then L49C, with -0.368 ± 0.12; and L49P, with 0.026 ± 0.12.
As to L49G, the abundance fitness was -0.05 ± 0.06.
As to L49D, the abundance fitness is -0.046 ± 0.097.
L49R: the abundance fitness amounted to 0.185 ± 0.065.
Same read-out and setting: then P53G, with -0.359 ± 0.16; and P53S, with -0.439 ± 0.2.

In another data set the parent is B2. Described as above. As to conditions: Homo sapiens.
Consider HMGQARALMGLSAQLDEELDFREGDVITIIGVPEPGWFEGELEGRRGIFPEGFVELLGPLR [S1H], for which the abundance fitness is -0.104 ± 0.12.
Same read-out and setting: then PMGQARALMGLSAQLDEELDFREGDVITIIGVPEPGWFEGELEGRRGIFPEGFVELLGPLR [S1P], with -0.661 ± 0.36; and IMGQARALMGLSAQLDEELDFREGDVITIIGVPEPGWFEGELEGRRGIFPEGFVELLGPLR [S1I], with 0.103 ± 0.084.
Still for that read-out and setting: then NMGQARALMGLSAQLDEELDFREGDVITIIGVPEPGWFEGELEGRRGIFPEGFVELLGPLR [S1N], with -0.049 ± 0.11; and LMGQARALMGLSAQLDEELDFREGDVITIIGVPEPGWFEGELEGRRGIFPEGFVELLGPLR [S1L], with -0.554 ± 0.14.
Take AMGQARALMGLSAQLDEELDFREGDVITIIGVPEPGWFEGELEGRRGIFPEGFVELLGPLR [S1A]: the abundance fitness was determined as 0.121 ± 0.084.
Take DMGQARALMGLSAQLDEELDFREGDVITIIGVPEPGWFEGELEGRRGIFPEGFVELLGPLR [S1D]: the abundance fitness was -0.036 ± 0.15.
On to FMGQARALMGLSAQLDEELDFREGDVITIIGVPEPGWFEGELEGRRGIFPEGFVELLGPLR [S1F], for which the abundance fitness was -0.029 ± 0.087.
For the variant CMGQARALMGLSAQLDEELDFREGDVITIIGVPEPGWFEGELEGRRGIFPEGFVELLGPLR [S1C], the abundance fitness is -0.077 ± 0.056.
On the same count and under the same terms, the value for MMGQARALMGLSAQLDEELDFREGDVITIIGVPEPGWFEGELEGRRGIFPEGFVELLGPLR [S1M] was 0.073 ± 0.3.

Source of the values: the Human Domainome abundance scans (Beltran et al. 2025).
